Measurements reported in patent CN114014929A (JIANGSU QYUNS THERAPEUTICS CO LTD, dated 2022).

What was measured:
[1] = target: T1, 天然人白介素-33 (natural human interleukin-33 from HFL-1 cell lysate) (human, UniProt O95760 1-270, limits assumed); assay: cell-based or functional assay
T1 sequence (looked up): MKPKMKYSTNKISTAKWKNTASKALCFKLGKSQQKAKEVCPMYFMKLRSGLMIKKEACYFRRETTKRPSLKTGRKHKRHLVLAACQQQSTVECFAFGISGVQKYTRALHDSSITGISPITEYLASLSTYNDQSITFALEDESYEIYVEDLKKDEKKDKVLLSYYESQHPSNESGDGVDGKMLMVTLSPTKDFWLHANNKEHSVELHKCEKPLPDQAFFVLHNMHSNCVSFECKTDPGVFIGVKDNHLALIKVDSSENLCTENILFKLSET

[2] = target: T2, 人白介素-33 (human interleukin-33, recombinant) (human, UniProt O95760 112-270); assay: cell-based or functional assay
T2 sequence: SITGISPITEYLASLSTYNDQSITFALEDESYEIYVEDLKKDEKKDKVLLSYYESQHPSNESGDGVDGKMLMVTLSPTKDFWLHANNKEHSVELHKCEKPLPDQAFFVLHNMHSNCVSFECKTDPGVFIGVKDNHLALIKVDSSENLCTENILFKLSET

中和天然人白介素-33诱导HEK Blue IL-33细胞中NF-κB/AP-1信号转导 (SEAP, OD630nm), IC50 [1]: 3.91 ng/mL
中和人白介素-33诱导人全血释放IFN-γ, IC50 [2]: 16 ng/mL
中和人白介素-33诱导的KU812细胞释放IL-5 (IL-5 ELISA), IC50 [2]: 5.87 ng/mL
中和重组人白介素-33诱导HEK Blue IL-33细胞中NF-κB/AP-1信号转导 (SEAP, OD630nm), IC50 [2]: 6.67 ng/mL
B1: QX007N(HZD78-70) (antibody, V domains shown)
VH: EVQLVESGGGLVQPGGSLRLSCAASGFSLSSYHMIWVRQAPGKGLEWVGVIYPNSNIYYATWAKGRFTISRDNSKNTLYLQMNSLRAEDTAVYYCARTIYVHVYSALSIWGQGTLVTVSS
VL: AFQMTQSPSSVSASVGDRVTITCQASESVLNEVSWYQQKPGKAPKLLIYFASKLASGVPSRFSGSGSGTDFTLTISSLQPEDFATYYCQQDWSMDNIDNAFGGGTKVEIKR
